Two molecules from US20260055369A1, “METHOD FOR GENERATING CELLS OF THE T CELL LINEAGE WITH ENGINEERING BROADLY REACTIVE HUMAN NOTCH LIGAND” (H. Lee Moffitt Cancer Center and Research Institute, Inc., priority 2022, published 2026) can be followed below.

Positions count from the first letter of the chain named.

A word on the EC50: it is the concentration giving half of the maximal effect. Read a low EC50 as greater potency.

Test [1] has as its system Notch1. Nature of the test: Notch activation assay with ligands non-specifically adsorbed to plates (CHO-K1 N1-Gal4 fluorescent reporter). It counts as cell-based. To be noted: for EC50 for Notch1 activation: non-specifically adsorbed to tissue culture plates, 24 hours. How it is done:
On day one, 2-fold serial dilutions of non-biotinylated DLL4 recombinant proteins (N-EGF5) were prepared in 100 μL of DPBS and used to coat 96-well plates (Coastar) for 1 hour at 37° C. WT DLL4 started at 66.56 ng/mm^2 and Delta^MAX at 0.33 ng/mm^2. Then, the wells were washed three times with 200 μL of DPBS to remove unbound proteins. Next, CHO-K1 N1-Gal4 cells in culture were detached with trypsin-EDTA 0.25% (Gibco) and manually counted. Appropriate dilutions were prepared in α-MEM media to ensure 30,000 CHO-K1 N1-Gal4 cells per well in 200 μL. Ligand-coated plates and reporter cell lines were incubated for 24 hours at 37° C. and 5% CO2. On day two, CHO-K1 N1-Gal4 cells were washed with 200 μL DPBS, detached with 30 μL of trypsin-EDTA 0.25%, and quenched with 200 μL of α-MEM media. Finally, cells were resuspended and H2B-mCitrine signal was measured by flow cytometry (BD Accuri C6 plus). CHO-K1 N1-Gal4 and ligand-lacking wells were used as a negative control. The measurements represent the mean fluorescent intensity as percentage of Notch activation±s.d. of three biological replicates. Notch activation was reference-subtracted from a well coated with 0.5% BSA containing CHO-K1 N1-Gal4 cells. Gating strategies for this experiment are detailed in FIG. 13A.

For test [2], the system named is Notch1. Nature of the test: Notch activation with ligand-oriented coupling on streptavidin plates (CHO-K1 N1-Gal4 reporter). To be noted: for EC50: C-terminally biotinylated, streptavidin-coated plates (oriented coupling), 24 hours; for maximum level of Notch1 activation, oriented coupling versus non-specific adsorption: FIG. 3B. It counts as cell-based. How it is done: For CHO-K1 N1-Gal4 reporters, on day one, tissue culture 96-well plates (Coastar) were pre-treated with 100 μL of streptavidin at 10 μg/mL (VWR) for 1 hour at 37° C., washed three times with 200 μL DPBS (Corning), and blocked with 100 μL BSA 2% (VWR) for 1 hour at 37° C. Excess BSA was removed by washing three times with 200 μL DPBS (Corning), and 100 μL of DPBS containing biotinylated DLL4 proteins were coupled to streptavidin for 1 hour at 37° C. (2-fold serial dilutions starting at 50 nM). Non-coupled DLL4 proteins were removed by washing three times with 200 μL DPBS. Next, Notch reporter cells in culture were detached with trypsin-EDTA 0.25% (Gibco), and 30,000 cells in α-MEM media (200 μL) were added into individual wells. Assay plates were incubated for 24 hours at 37° C., and 5% CO2. On day two, CHO-K1 N1-Gal4 cells were washed with 200 μL DPBS, detached with 30 μL of trypsin-EDTA 0.25%, and 200 μL of α-MEM media added. Cells were resuspended and Notch activation was measured as a function of fluorescence by flow cytometry (BD Accuri C6 plus). CHO-K1 N1-Gal4 cells and lacking-ligand wells were used as a negative control. The measurements represent the mean fluorescent intensity as percentage of Notch activation±s.d. of three biological replicates. Notch activation was reference-subtracted from a well coated with a non-related control protein (PA domain of RNF128).
Chain of Notch1 (P46531 19-1664 limits assumed): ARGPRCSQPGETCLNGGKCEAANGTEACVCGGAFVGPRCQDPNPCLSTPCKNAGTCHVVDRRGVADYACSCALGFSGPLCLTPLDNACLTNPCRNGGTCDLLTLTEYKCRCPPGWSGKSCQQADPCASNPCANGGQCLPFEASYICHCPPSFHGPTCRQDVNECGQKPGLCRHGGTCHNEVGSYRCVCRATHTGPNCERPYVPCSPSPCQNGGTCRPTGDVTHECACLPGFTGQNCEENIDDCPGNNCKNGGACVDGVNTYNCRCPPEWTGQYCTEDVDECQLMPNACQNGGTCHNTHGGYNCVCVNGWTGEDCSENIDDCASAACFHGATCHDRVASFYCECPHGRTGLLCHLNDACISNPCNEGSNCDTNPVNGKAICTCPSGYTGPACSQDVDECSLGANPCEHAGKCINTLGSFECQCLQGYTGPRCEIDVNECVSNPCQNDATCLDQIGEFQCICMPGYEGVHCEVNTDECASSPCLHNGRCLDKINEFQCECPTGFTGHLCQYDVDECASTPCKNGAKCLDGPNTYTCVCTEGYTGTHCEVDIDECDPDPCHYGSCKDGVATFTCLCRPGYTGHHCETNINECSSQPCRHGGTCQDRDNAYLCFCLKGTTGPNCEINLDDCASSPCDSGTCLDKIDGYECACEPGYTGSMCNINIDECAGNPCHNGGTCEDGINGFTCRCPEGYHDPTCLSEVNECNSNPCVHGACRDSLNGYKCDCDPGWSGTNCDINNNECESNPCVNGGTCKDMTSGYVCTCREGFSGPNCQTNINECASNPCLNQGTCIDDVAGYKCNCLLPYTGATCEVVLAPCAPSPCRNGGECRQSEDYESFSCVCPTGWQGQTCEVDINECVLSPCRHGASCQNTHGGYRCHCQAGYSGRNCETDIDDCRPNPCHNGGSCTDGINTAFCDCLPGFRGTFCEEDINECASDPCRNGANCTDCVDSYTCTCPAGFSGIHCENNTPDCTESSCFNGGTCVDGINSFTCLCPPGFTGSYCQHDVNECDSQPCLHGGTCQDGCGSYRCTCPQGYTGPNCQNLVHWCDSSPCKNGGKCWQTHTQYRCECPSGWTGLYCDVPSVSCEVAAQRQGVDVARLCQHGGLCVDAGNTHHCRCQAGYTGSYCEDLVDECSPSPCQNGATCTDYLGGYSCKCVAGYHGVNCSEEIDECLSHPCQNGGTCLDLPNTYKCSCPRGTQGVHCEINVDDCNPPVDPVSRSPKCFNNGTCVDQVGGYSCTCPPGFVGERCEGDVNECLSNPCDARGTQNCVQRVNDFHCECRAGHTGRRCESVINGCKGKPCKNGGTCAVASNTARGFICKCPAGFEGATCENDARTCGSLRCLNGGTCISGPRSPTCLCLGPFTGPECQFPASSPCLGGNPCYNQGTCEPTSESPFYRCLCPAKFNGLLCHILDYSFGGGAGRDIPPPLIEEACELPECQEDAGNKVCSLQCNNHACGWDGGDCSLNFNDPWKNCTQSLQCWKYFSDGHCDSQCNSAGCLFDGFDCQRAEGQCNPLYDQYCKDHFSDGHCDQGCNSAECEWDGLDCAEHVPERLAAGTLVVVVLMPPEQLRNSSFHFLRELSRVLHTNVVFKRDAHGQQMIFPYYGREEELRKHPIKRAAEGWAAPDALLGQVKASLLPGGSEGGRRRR
Chain of Notch1 (P46531 1665-1756 limits assumed): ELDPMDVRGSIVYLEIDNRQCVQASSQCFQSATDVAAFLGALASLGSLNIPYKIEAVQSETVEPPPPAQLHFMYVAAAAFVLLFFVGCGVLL

The test system of test [3] is Notch3. The test can be described thus: Notch inhibition assay in co-culture format (U2OS Notch3 reporter with HEK293T expressing DLL4, DLL1, JAG1 or JAG2). It counts as cell-based, human. To be noted: 3 μM soluble protein; signaling by DLL1, DLL4, JAG1 and JAG2 expressing HEK293T cells. How it is done: For inhibition of Notch ligand-expressing cell lines, on day one, U2OS Notch3 reporter cells (signal receivers) were detached with trypsin-EDTA, washed with DPBS, and added to 6-well plates. On day two, U2OS cells were transfected as described above. On day three, signal receiver cells were detached with trypsin-EDTA, and dilutions of 400,000 cells/mL were prepared in DMEM. On the one hand, soluble DLL4 variants were prepared at 6,000 nM in DPBS, combined in 1:1 dilution with signal receiver cells, and incubated for 15 min at RT. On the other hand, HEK293T-expressing WT DLL4, DLL1, JAG1, JAG2 were detached with trypsin-EDTA, washed with DPBS and 200,000 cells/mL stocks prepared in DMEM. One hundred microliters of both signal senders and pre-blocked signal receivers were combined in cell ratio 1:1 and incubated for 24 hours at 37° C., and 5% CO2. On day four, luciferase firefly and Renilla signals were determined with Dual-Glo luciferase assay system (Promega) using a GloMax luminometer (Promega). Doxycycline at 2 μg/mL was kept for all the conditions. A luminescence ratio firefly:Renilla was determined for every well. Notch activation of each Notch3:ligand pair was normalized to the signal of Notch3 reporters in the presence of HEK293T lacking ligands. Each Notch signaling pair was set at 100% activation and soluble DLL4 treatments were relative to its corresponding pair. […]
Chain of Notch3 (Q9UM47 197-505 limits assumed): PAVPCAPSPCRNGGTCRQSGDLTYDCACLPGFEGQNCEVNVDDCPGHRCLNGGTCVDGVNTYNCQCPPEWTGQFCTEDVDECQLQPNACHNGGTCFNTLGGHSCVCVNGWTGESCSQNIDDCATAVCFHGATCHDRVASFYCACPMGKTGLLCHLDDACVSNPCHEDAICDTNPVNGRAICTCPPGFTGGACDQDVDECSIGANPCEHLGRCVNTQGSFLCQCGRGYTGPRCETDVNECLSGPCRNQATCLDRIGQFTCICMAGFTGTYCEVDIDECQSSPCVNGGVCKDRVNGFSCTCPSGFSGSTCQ

B1: Delta^MAX: engineered human DLL4 consensus variant with 10 mutations combining DLL4.v1 and DLL4.v2 mutations; sequence matches SEQ ID NO: 4/10 (protein)
chain: SSVFQLQLQEFINERGVLASGRPCEPGCRTFFRVCLKHFQAVVSPGPCTFGTVSTPVLGTNSFAVRDDSSGGGRNPLQLPLNFTWPGTFSLIIEAWHAPGDDLRPEALPPDALISKFAIQGSLAVGQNWLLDEQTSTLTRLRYSYRVICSDNYYGDNCSRLCKKRNDYFGHYVCQPDGNPSCLPGWTGEYCQQPICLSGCHEQNGYCSKPAECLCRPGWQGRLCNECIPHPGCRHGTCSTPWQCLCDEGWGGLYCDQDLNYCTHHSPCKNGATCRNSGPRSYTCTCRPGYTGVDCELELSECDSNPCRNGGSCKDQEDGYHCLCPPGYYGLHCEHSTLSCADSPCFNGGSCRERNQGANYACECPPNFTGSNCE
Consider B1, for which the “Emax greater than that induced by WT DLL4” value in test [1] (non-specific adsorption) came to 20%. Besides, in test [1], the “EC50 for Notch1 activation” value is 0.009 ng/mm^2. Moreover, the “improvement in Notch activation efficiency vs WT DLL4” value in test [1] (ratio of EC50, non-specific adsorption) is 250 fold. In addition, in test [2], a half-maximal response (EC50) required 1.7 nM and the “maximum level of Notch1 activation, oriented coupling versus non-specific adsorption” value is “higher maximum level”. Moreover, the “reduction in reporter signal” value in test [3] is recorded as 70-85%.

B2: WT DLL4: human wild-type Delta-like 4 (N-EGF5, residues 27-400), SEQ ID NO: 1 (protein)
chain: B1 chain with S2G, L81F, F117I, Y168H, P180L, P231N, L245T, Y254F, R275S, P279Q
Turning to B2, the “EC50 for Notch1 activation” value in test [1] is reported as 2.3 ng/mm^2. Also, in test [2], a half-maximal effect (EC50) was put at 16 nM and the “maximum level of Notch1 activation, oriented coupling versus non-specific adsorption” value is “higher maximum level”. For the same molecule, the “reduction in reporter signal” value in test [3] is given as 10-40%.
